Measurements reported in publication PMC11168072.
Values joined by “and” are separate entries in the source; they are usually repeats but may differ in a detail not shown here. Identical values can stand only once. Each block holds one substance with its values, some of them ahead of it.

How the values were obtained:
[1] = target: DtpA, A-type dye-decolorizing peroxidase from Streptomyces lividans (Streptomyces lividans); experiment: AUC; sedimentation velocity, absorbance at 410 nm, 40,000 rpm, 20°C, 50 mM HEPES pH 7.0, 100 mM NaCl, protein 0.75-0.85 μM, c(S) model in SEDFIT
[2] = target: DtpAa, A-type dye-decolorizing peroxidase from Streptomyces lividans (Streptomyces lividans); experiment: as above
[3] = target: DtpB, B-type dye-decolorizing peroxidase from Streptomyces lividans (Streptomyces lividans); experiment: cryo-EM structure; single particle, Titan Krios 300 kV, DtpB ~6 mg/mL with 8 mM CHAPSO, D3 symmetry imposed, 3.02 Å map of the hexamer
[4] = target: DtpB, B-type dye-decolorizing peroxidase from Streptomyces lividans (Streptomyces lividans); experiment: cryo-EM structure; single particle, Talos Arctica 200 kV, DtpB ~6 mg/mL with 8 mM CHAPSO, C1 symmetry, low resolution maps of quasi-hexamer (14.5 Å) and dodecamer (13.4 Å)
[5] = target: DtpB, B-type dye-decolorizing peroxidase from Streptomyces lividans (Streptomyces lividans); experiment: AUC; sedimentation velocity, absorbance at 410 nm, 40,000 rpm, 20°C, 50 mM HEPES pH 7.0, 100 mM NaCl, protein 0.75-0.85 μM, c(S) model in SEDFIT

proportion of the sedimenting species (ratio), species 1, dimer [1]: 76
proportion of the sedimenting species (ratio), species 2, tetramer [1]: 13
stoichiometry N [1]: 2 and 4
Substance: DtpA, A-type dye-decolorizing peroxidase from Streptomyces lividans (enzyme)

stoichiometry N [2]: 2
Substance: DtpAa, A-type dye-decolorizing peroxidase from Streptomyces lividans (enzyme)

stoichiometry N [3]: 6
stoichiometry N [4]: 12
proportion of the sedimenting species (ratio), species 1, dimer [5]: 2.5
proportion of the sedimenting species (ratio), species 2, hexamer [5]: 82
proportion of the sedimenting species (ratio), species 3, dodecamer [5]: 10
Substance: DtpB, B-type dye-decolorizing peroxidase from Streptomyces lividans (enzyme)
